Source: patent publication US5861477A (priority 1996, dated 1999)
Where “and” joins values, the source holds several entries; their conditions need not be identical. Equal entries are not always repeated.

What was measured:
[1] = system: M. lysodeikticus cell wall; assay: Lysozyme activity: hydrolysis of M. lysodeikticus; assay type: biochemical, Micrococcus lysodeikticus
Description: Measurement of Lysozyme Activity. […] The decrease in turbidity was measured at 450 nm on a recording spectrophotometer. […] Kinetic constants were determined from the linear plots of 1/initial velocity (in change of absorbance/min) against 1/substrate concentration in mg/ml as described (Lineweaver, H. and Burk, D. (1934) J. Amer. Chem. Soc. 56, 658-666). […] Applicant always dedicated a separate spectrophotometer cuvette for this positive control. […] The decrease in turbidity was monitored at room temperature at 450 nm.

yeast RNA [2] = assay: Ribonuclease activity: hydrolysis of yeast RNA; assay type: biochemical
Description: Measurement of Ribonuclease Activity. The catalytic activity of RNase and RnPepz were determined by their hydrolytic effects on yeast RNA (Kunitz, M. (1946) J. Biol. Chem. 164, 563-569; Gutte, B. and […]. Biol. Chem. 246, 1922-1941). […] The decrease in absorbance at 300 nm with time was measured on the recording spectrophotometer. Reaction mixtures that contained no catalyst as well as mixtures containing LyPepz or other cyclic peptides unrelated to RNase were used as controls. The kinetic parameters of the hydrolytic activities were determined by Lineweaver-Burk plots (Lineweaver, H. and Burk, D. (1934) J. Amer. Chem. Soc. 56, 658-666) of 1/absorbance change per minute against 1/substrate concentration in mg per ml. […] The change in absorbance with the test samples (RnPepz) was correlated for the small change obtained with the same amount of unrelated peptides (negative controls) acting on the corresponding concentration of substrate. […] The effects of disulfide-bond reduction on RNase and RnPepz activities were determined by premixing each catalyst (RNase, 1.095×10^-4 μmole; […] The reactions were monitored by the decrease in absorbance at 300 nm as above. The effects of inhibitors (denatured DNA or Ag^+) on activities were also done by pre-mixing RNase or RnPepz with denatured DNA (250 μg) or with 10 molar excess of AgNO3 prior to addition to RNA, using the same amounts of catalyst and substrate described for DTT. Denaturation of DNA was done by boiling a solution in water (1 mg/ml) for 10 min, then chilling immediately in ice.

[3] = system: M. lysodeikticus cell wall; details: 0.125M NaCl; Neville et al. 1972; cited from earlier work
yeast RNA [4] = details: Gutte et al. 1971; Edelhock and Coleman 1956; cited from earlier work
[5] = 10 molar excess, pre-mixed 3 hr
[6] = hydrolysis of M. lysodeikticus, 25° C., 0.125M NaCl
[7] = hydrolysis of yeast RNA, 0.1M sodium acetate, pH 5.0, 25° C.

Row | Molecule | activity on M. lysodeikticus in presence of histamine [1, 5] | activity on M. lysodeikticus in presence of imidazole [1, 5] | activity on M. lysodeikticus in presence of tryptamine [1, 5] | Km [1, 6] [mg/L] | kcat [1, 6] [OD units/μmole/sec] | hydrolytic activity on yeast RNA (yeast RNA [2]; in words) | Km reported value [3] [mg/L] | activity on yeast RNA in presence of denatured DNA (yeast RNA [2]; 250 μg denatured DNA) | activity on yeast RNA in presence of Ag^+ (heavy metals) (yeast RNA [2]; 10 molar excess of AgNO3) | hydrolytic activity on yeast RNA at 10° C. (yeast RNA [2]; 10° C.) | Km (yeast RNA [2]; [7]) [mg/L] | kcat (yeast RNA [2]; [7]) [OD units/μmole/sec] | Km reported values (yeast RNA [4])
1 | LYZ: hen egg lysozyme | completely inhibited | completely inhibited | completely inhibited | 120.6 ± 4.0 | 9.26 ± 0.12 | no effect | 129 |  |  |  |  |  | 
2 | RNase: bovine ribonuclease A (protein, UniProt P61823 27-150, looked up) Ribonuclease pancreatic: KETAAAKFERQHMDSSTSAASSSNYCNQMMKSRNLTKDRCKPVNTFVHESLADVQAVCSQKNVACKNGQTNCYQSYSTMSITDCRETGSSKYPNCAYKTTQANKHIIVACEGNPYVPVHFDASV |  |  |  |  |  |  |  | completely inhibited | completely inhibited | neither RnPepz nor RNase had any measurable hydrolytic activity | 1254 ± 460 | 14.05 ± 6.85 | 1.20 mg/mL and 1.25 mg/mL
